Results taken from publication PMC9482650, “Quantitative fragmentomics allow affinity mapping of interactomes” (Nature Communications, 2022).

Columns and labels:
Test in all cases: holdup assay
Set-up in all cases: key: below the threshold = too weak to quantify, mostly under pKd 3.1 to 4
Conditions in all cases: plain residues with an end cap or a label only (N-terminal biotin on a linker: ado-ado)
MPDZ_10, O75970 = target: T1, MPDZ_10, O75970
T1 sequence (O75970 1624-1722, limits assumed, looked up): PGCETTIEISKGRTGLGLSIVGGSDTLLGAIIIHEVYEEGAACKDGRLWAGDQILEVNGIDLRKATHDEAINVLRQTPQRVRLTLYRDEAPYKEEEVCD

SCRIB_3, Q14160 = target: SCRIB_3, Q14160
Inadl_6, Q8NI35 = target: Inadl_6, Q8NI35
DLG4_1, P78352 = target: DLG4_1, P78352
FRMPD2_3, Q68DX3 = target: FRMPD2_3, Q68DX3
MAGI2_2, Q86UL8 = target: MAGI2_2, Q86UL8
LNX1_2, Q8TBB1 = target: LNX1_2, Q8TBB1
DVL3, Q92997 = target: T2, DVL3, Q92997
T2 sequence (Q92997 244-331, limits assumed, looked up): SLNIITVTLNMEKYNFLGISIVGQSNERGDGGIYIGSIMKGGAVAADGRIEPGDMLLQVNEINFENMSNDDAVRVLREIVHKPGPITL

GORASP1, Q9BQQ3 = target: GORASP1, Q9BQQ3
LDB3, O75112 = target: LDB3, O75112
LNX1_1, Q8TBB1 = target: LNX1_1, Q8TBB1
PDZRN4_1, Q6ZMN7 = target: PDZRN4_1, Q6ZMN7
MPP7, Q5T2T1 = target: T3, MPP7, Q5T2T1
T3 sequence (Q5T2T1 134-230, limits assumed, looked up): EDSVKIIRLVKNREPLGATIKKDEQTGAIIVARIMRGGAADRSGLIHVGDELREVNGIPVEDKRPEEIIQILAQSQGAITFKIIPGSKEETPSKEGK

RADIL, Q96JH8 = target: T4, RADIL, Q96JH8
T4 sequence (Q96JH8 971-1071, limits assumed, looked up): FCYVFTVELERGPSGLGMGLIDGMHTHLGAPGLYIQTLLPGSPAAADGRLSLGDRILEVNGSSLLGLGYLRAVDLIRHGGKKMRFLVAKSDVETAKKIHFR

CARD11, Q9BXL7 = target: T5, CARD11, Q9BXL7
T5 sequence (Q9BXL7 662-765, limits assumed, looked up): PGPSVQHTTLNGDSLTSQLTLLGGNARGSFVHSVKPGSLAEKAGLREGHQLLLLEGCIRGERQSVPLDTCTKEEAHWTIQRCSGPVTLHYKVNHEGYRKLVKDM

APBA3_1, O96018 = target: T6, APBA3_1, O96018
T6 sequence (O96018 389-490, limits assumed, looked up): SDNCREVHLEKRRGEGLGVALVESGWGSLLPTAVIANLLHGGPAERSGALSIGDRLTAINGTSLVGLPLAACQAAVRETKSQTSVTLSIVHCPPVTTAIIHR

NOS1, P29475 = target: NOS1, P29475
FRMPD4, Q14CM0 = target: FRMPD4, Q14CM0
MAGI3_2, Q5TCQ9 = target: MAGI3_2, Q5TCQ9
Inadl_10, Q8NI35 = target: Inadl_10, Q8NI35
ARHGEF12, Q9NZN5-2 = target: ARHGEF12, Q9NZN5-2
MAGI2_4, Q86UL8 = target: MAGI2_4, Q86UL8
MAGI1_1, Q96QZ7 = target: MAGI1_1, Q96QZ7
GRIP2_5, Q9C0E4 = target: GRIP2_5, Q9C0E4
NHERF3_4, Q5T2W1 = target: T7, NHERF3_4, Q5T2W1
T7 sequence (Q5T2W1 373-468, limits assumed, looked up): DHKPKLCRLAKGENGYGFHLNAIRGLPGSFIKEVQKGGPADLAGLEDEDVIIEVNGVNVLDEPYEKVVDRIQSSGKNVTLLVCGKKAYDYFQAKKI

DLG2_2, Q15700 = target: DLG2_2, Q15700
MAGI2_3, Q86UL8 = target: MAGI2_3, Q86UL8
ARHGAP21, Q5T5U3 = target: T8, ARHGAP21, Q5T5U3
T8 sequence (Q5T5U3 45-169, limits assumed, looked up): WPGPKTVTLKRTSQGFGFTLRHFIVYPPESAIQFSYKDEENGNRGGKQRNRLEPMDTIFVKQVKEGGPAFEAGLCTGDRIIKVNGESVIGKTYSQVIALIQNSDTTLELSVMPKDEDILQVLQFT

Inadl_9, Q8NI35 = target: Inadl_9, Q8NI35
PTPN3, P26045 = target: PTPN3, P26045
PTPN3, P26045, sequence (P26045 505-587): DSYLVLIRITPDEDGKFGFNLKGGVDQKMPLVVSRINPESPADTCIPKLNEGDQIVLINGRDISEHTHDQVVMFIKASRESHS

LNX1_2, Q8TBB1, sequence (Q8TBB1 371-470): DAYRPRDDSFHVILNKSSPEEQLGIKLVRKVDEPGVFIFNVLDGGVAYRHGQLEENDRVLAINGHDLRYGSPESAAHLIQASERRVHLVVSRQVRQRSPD
FRMPD2_3, Q68DX3, sequence (Q68DX3 1073-1166): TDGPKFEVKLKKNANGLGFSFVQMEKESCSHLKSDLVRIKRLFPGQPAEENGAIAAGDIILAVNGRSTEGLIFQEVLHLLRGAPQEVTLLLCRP
NOS1, P29475, sequence (P29475 9-101): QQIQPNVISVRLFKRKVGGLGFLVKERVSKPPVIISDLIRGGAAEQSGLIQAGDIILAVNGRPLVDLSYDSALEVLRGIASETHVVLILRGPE
SCRIB_3, Q14160, sequence (Q14160 999-1103): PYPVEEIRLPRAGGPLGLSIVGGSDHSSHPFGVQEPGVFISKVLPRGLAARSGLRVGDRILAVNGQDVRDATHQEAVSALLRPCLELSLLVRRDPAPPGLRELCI
MAGI2_2, Q86UL8, sequence (Q86UL8 410-522): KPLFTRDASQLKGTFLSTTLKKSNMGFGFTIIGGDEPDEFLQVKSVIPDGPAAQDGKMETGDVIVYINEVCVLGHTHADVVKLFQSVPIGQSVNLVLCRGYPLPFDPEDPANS
PDZRN4_1, Q6ZMN7, sequence (Q6ZMN7 213-318): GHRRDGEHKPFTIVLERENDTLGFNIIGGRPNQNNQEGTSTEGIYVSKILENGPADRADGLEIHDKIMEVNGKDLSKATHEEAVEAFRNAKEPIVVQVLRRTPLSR
MAGI2_3, Q86UL8, sequence (Q86UL8 600-682): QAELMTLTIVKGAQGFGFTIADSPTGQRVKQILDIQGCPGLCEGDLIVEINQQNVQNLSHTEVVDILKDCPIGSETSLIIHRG
LNX1_1, Q8TBB1, sequence (Q8TBB1 261-371): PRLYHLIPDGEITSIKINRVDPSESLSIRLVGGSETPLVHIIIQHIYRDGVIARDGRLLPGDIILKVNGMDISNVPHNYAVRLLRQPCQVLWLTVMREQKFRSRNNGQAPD
Inadl_9, Q8NI35, sequence (Q8NI35 1530-1615): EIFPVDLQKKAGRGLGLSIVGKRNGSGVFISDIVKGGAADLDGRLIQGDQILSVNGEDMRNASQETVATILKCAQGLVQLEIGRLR
MAGI3_2, Q5TCQ9, sequence (Q5TCQ9 398-503): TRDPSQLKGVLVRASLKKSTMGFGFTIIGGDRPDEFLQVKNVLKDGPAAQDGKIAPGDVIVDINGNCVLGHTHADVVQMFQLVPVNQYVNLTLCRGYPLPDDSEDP
LDB3, O75112, sequence (O75112 1-94): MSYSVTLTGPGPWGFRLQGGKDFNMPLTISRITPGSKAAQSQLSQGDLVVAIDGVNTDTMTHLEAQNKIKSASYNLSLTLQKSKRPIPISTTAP
DLG4_1, P78352, sequence (P78352 62-152): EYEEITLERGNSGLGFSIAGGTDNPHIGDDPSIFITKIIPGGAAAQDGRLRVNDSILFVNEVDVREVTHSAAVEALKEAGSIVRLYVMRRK
GORASP1, Q9BQQ3, sequence (Q9BQQ3 1-208): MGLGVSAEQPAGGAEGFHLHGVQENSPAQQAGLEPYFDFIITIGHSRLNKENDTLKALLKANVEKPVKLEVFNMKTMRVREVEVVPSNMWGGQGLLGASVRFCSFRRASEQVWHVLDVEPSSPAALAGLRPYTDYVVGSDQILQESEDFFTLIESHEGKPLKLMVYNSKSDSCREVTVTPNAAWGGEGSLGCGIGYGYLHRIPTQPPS
MAGI2_4, Q86UL8, sequence (Q86UL8 772-865): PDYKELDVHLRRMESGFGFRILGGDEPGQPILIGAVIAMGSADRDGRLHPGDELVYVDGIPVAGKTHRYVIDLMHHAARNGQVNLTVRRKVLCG
GRIP2_5, Q9C0E4, sequence (Q9C0E4 544-642): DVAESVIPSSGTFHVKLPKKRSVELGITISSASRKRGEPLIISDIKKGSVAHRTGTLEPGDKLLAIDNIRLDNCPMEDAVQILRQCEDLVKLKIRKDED
Inadl_10, Q8NI35, sequence (Q8NI35 1673-1763): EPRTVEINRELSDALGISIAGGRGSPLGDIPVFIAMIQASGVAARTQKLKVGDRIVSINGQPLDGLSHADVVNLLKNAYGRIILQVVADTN
Inadl_6, Q8NI35, sequence (Q8NI35 1058-1167): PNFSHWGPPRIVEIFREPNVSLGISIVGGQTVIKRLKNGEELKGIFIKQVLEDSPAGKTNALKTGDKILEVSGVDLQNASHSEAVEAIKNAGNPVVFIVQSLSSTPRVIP
FRMPD4, Q14CM0, sequence (Q14CM0 67-160): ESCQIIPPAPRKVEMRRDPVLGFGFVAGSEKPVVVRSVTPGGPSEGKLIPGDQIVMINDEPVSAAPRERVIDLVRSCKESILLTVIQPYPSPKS
ARHGEF12, Q9NZN5-2, sequence (Q9NZN5 other isoform, or with tags, fused parts or gaps): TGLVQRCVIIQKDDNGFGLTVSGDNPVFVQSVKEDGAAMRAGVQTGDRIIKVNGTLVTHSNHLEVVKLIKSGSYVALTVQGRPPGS
MAGI1_1, Q96QZ7, sequence (Q96QZ7 1-106): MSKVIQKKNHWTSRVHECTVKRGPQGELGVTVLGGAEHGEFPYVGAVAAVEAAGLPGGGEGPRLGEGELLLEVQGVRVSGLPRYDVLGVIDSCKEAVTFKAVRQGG
DLG2_2, Q15700, sequence (Q15700 189-283): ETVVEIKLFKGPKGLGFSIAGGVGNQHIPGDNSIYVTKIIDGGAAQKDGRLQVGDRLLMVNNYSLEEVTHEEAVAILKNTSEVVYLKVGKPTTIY

## GSSSKEGTSV [RRBP1, Q9P2E9]
MPDZ_10, O75970
  pKd: 3.62
SCRIB_3, Q14160
  pKd: 4.23
Inadl_6, Q8NI35
  pKd: below the threshold
DLG4_1, P78352
  pKd: 4.12
FRMPD2_3, Q68DX3
  pKd: below the threshold
MAGI2_2, Q86UL8
  pKd: 4
LNX1_2, Q8TBB1
  pKd: 3.49
DVL3, Q92997
  pKd: below the threshold
GORASP1, Q9BQQ3
  pKd: below the threshold
LDB3, O75112
  pKd: below the threshold
LNX1_1, Q8TBB1
  pKd: below the threshold
PDZRN4_1, Q6ZMN7
  pKd: 4.23
MPP7, Q5T2T1
  pKd: below the threshold
RADIL, Q96JH8
  pKd: below the threshold
CARD11, Q9BXL7
  pKd: below the threshold
APBA3_1, O96018
  pKd: below the threshold
NOS1, P29475
  pKd: 3.72
FRMPD4, Q14CM0
  pKd: 3.71
MAGI3_2, Q5TCQ9
  pKd: 4.51
Inadl_10, Q8NI35
  pKd: below the threshold
ARHGEF12, Q9NZN5-2
  pKd: 3.91
MAGI2_4, Q86UL8
  pKd: 4.32
MAGI1_1, Q96QZ7
  pKd: below the threshold
GRIP2_5, Q9C0E4
  pKd: below the threshold
NHERF3_4, Q5T2W1
  pKd: below the threshold
DLG2_2, Q15700
  pKd: 3.9
MAGI2_3, Q86UL8
  pKd: 3.54
ARHGAP21, Q5T5U3
  pKd: below the threshold
Inadl_9, Q8NI35
  pKd: 3.57
PTPN3, P26045
  pKd: 5.01

## ADRDHASDQL [CTBP1, Q13363]
MPDZ_10, O75970
  pKd: below the threshold
SCRIB_3, Q14160
  pKd: below the threshold
Inadl_6, Q8NI35
  pKd: below the threshold
DLG4_1, P78352
  pKd: below the threshold
FRMPD2_3, Q68DX3
  pKd: below the threshold
MAGI2_2, Q86UL8
  pKd: below the threshold
LNX1_2, Q8TBB1
  pKd: below the threshold
DVL3, Q92997
  pKd: below the threshold
GORASP1, Q9BQQ3
  pKd: below the threshold
LDB3, O75112
  pKd: below the threshold
LNX1_1, Q8TBB1
  pKd: below the threshold
PDZRN4_1, Q6ZMN7
  pKd: below the threshold
MPP7, Q5T2T1
  pKd: below the threshold
RADIL, Q96JH8
  pKd: below the threshold
CARD11, Q9BXL7
  pKd: below the threshold
APBA3_1, O96018
  pKd: below the threshold
NOS1, P29475
  pKd: below the threshold
FRMPD4, Q14CM0
  pKd: 3.93
MAGI3_2, Q5TCQ9
  pKd: below the threshold
Inadl_10, Q8NI35
  pKd: below the threshold
ARHGEF12, Q9NZN5-2
  pKd: below the threshold
MAGI2_4, Q86UL8
  pKd: below the threshold
MAGI1_1, Q96QZ7
  pKd: below the threshold
GRIP2_5, Q9C0E4
  pKd: below the threshold
NHERF3_4, Q5T2W1
  pKd: below the threshold
DLG2_2, Q15700
  pKd: below the threshold
MAGI2_3, Q86UL8
  pKd: below the threshold
ARHGAP21, Q5T5U3
  pKd: 4.08
Inadl_9, Q8NI35
  pKd: below the threshold
PTPN3, P26045
  pKd: below the threshold
